Usually Kd stands for the free concentration of one partner at which half of the binding sites on the other are occupied at equilibrium, for simple one-to-one binding. A high value points to lower affinity. Broadly, the koff is a measure of how fast the partners let go of each other. Higher therefore signals fast dissociation. For orientation: kon means the rate constant with which the complex forms. Low readings indicate slow association, high ones fast association.

In experiment [1] the target is human VEGFR1-hFc (human) (UniProt P17948).
Sequence of human VEGFR1-hFc (human) (P17948 27-758): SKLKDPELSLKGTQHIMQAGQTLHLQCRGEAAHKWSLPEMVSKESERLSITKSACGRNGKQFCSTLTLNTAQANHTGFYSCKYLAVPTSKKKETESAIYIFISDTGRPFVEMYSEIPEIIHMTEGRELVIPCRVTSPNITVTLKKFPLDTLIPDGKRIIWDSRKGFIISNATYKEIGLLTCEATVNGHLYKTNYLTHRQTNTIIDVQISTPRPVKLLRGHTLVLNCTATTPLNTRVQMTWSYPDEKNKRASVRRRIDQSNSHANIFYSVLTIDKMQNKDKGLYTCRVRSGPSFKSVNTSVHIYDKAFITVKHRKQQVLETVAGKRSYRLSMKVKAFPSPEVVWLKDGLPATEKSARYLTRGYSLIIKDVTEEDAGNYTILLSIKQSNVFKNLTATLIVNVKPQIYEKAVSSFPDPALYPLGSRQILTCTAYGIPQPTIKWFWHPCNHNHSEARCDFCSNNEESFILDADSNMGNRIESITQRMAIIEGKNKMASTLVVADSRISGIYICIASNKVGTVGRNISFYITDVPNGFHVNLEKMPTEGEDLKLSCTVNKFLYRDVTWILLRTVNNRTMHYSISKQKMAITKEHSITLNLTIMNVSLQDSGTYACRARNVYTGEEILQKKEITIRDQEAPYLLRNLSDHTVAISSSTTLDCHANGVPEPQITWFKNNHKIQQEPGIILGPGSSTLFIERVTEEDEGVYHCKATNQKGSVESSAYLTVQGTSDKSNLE
For experiment [2], the target named is VEGF Trap (aflibercept) (human). The experiment in a line: KinExA solution equilibrium assay; KinExA 3000, room temperature (25°C); VEGF Trap (1–50 pM) equilibrated 10–96 h with varying ligand; unbound inhibitor captured on VEGF-A165-coupled Azlactone beads and detected with Cy5 anti-human IgG; one-site homogeneous binding model. For orientation: Kinetic exclusion samples the free partner from a solution-phase mixture.
Sequence of VEGF Trap (aflibercept) (human) (chain, INN chains, looked up, as listed by the source): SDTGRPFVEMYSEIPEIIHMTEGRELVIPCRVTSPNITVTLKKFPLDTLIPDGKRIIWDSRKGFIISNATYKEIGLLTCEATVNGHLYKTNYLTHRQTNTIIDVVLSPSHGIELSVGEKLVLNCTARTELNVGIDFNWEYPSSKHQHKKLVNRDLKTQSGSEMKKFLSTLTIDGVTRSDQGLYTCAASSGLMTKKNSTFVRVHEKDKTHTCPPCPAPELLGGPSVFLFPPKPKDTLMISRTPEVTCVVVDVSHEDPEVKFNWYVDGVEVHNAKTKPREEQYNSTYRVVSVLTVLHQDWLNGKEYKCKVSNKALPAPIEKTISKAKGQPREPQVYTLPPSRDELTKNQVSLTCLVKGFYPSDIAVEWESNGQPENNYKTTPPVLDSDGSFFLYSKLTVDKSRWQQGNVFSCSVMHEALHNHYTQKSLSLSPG

Experiment [3] has the same target. Kind of experiment: SPR; Biacore 3000, CM5 chip, 25°C, HBS-T (10 mM Hepes, 150 mM NaCl, 3.4 mM EDTA, 0.05% polysorbate 20, pH 7.4); VEGF Trap or receptor-Fc captured at low density on amine-coupled Protein A, ligands injected (1.0–0.062 nM VEGF-A, 2.5–0.156 nM VEGF-B(10-108), 5.0–0.078 nM PlGF); kd of VEGF-A ligands by the 'fixed kd' procedure on a Biacore 2000 (~2–3 h); KD = kd/ka.

B1: human PlGF-2 (ligand)
chain: LPAVPPQQWALSAGNGSSEVEVVPFQEVWGRSYCRALERLVDVVSEYPSEVEHMFSPSCVSLLRCTGCCGDENLHCVPVETANVTMQLLKIRSGDRPSYVELTFSQHVRCECRPLREKMKPERRRPKGRGKRRREKQRPTDCHLCGDAVPRR
In the case of B1, the EC50 of luciferase activation in HEK293/VEGFR1 cells (dose response, 0.022 pM to 4.0 nM) in experiment [1] amounted to 29 pM. In experiment [2], the Kd is 0.0207 nM. In experiment [3], this molecule returned a Kd of 0.0389 nM, a koff of 6.81e-05 s⁻¹ and an on-rate (kon) of 1.75e+06 M⁻¹ s⁻¹.

B2: murine PlGF-2 (ligand)
chain: VHSQGALSAGNNSTEVEVVPFNEVWGRSYCRPMEKLVYILDEYPDEVSHIFSPSCVLLSRCSGCCGDEGLHCVPIKTANITMQILKIPPNRDPHFYVEMTFSQDVLCECRPILETTKAERRKTKGKRKRSRNSQTEEPHP
B2 had an EC50 of luciferase activation in HEK293/VEGFR1 cells (dose response, 0.022 pM to 4.0 nM) in experiment [1] of 10 pM. This molecule also came in with a dissociation constant Kd in experiment [3] of 0.00332 nM.

These data come from publication PMC3338918.
